Assay results from article PMC7542365 (mBio, 2020).

Molecular target: T1, A/Brevig Mission/1/1918 H1N1 NA, soluble tetramer with His tag attached (influenza A virus A/Brevig …)
T1 chain: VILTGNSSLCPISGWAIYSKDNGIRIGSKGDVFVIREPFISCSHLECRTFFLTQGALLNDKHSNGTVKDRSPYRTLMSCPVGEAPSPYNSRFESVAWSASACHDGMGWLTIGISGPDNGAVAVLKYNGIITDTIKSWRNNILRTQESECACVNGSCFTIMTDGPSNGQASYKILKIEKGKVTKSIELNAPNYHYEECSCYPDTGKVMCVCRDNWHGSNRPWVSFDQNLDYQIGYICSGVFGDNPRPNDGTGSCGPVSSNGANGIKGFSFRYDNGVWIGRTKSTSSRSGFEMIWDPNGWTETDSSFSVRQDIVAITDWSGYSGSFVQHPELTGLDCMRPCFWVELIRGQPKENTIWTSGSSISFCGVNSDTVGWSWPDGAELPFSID
Assay: SPR

B1: Z2B3-D102R Fab (Fab, V domains shown)
VH: EVQLVQSGAEVKKPGSSVKVSCKASGGPFSSYGFSWVRQAPGQGLEWMGGIIPVYGTTNYAQKFQGRVTITADESTSTAYMELSSLKSEDTAVYYCARDLQRTPMVDRIIGSYYYYNGLDVWGQGTTVTVSS
VL: QSVLTQPASVSGSPGQSITISCTGASSDVGDYNYVSWYQQHPGKAPKLMIYDVSNRPSGVSNRFSGSKSGDTASLTISGLQAEDEADYYCSSYTRSSSVVFGGGTKLTVL
  Kd: 1670 nM
